Here are results for six molecules from patent US20250228976A1 (BROAD INSTITUTE, published 2025).

The target in one test is T1, macaque TfR1 (rhesus macaque, UniProt I0FKY7 1-760).
T1 construct: whole, on cells; also called macTfR1; rhesus macaque TFRC
As to the kind of experiment: qPCR of cell-bound vector genomes, CHO cells stably expressing TfR1, 4 C, 1 h.

A further test concerns the target T2, mouse TfR1 (mouse, UniProt Q62351 1-763).
T2 construct: whole, on cells; also called mouse TFRC; mouse Tfrc
Described as above.

Another test concerns the target T3, marmoset TfR1 (marmoset, UniProt U3FHF5 1-760).
T3 construct: whole, on cells; also called marmoset TFRC; marTFRC
The test is described as above.

The target in test [1] is T4, human Transferrin Receptor (TFRC) (human, UniProt P02786 1-760).
T4 construct: whole, on cells; also called hTFRC; huTfR1
The experiment in a line: binding of AAV to CHO or hCMEC cells expressing human TFRC, relative to AAV9.

Test [2] deals with T4, human Transferrin Receptor (TFRC). The experiment in a line: legend of the 2-step in vivo transduction assay (human TFRC expressed in mouse brain endothelium).

T2 sequence (Q62351 whole entry): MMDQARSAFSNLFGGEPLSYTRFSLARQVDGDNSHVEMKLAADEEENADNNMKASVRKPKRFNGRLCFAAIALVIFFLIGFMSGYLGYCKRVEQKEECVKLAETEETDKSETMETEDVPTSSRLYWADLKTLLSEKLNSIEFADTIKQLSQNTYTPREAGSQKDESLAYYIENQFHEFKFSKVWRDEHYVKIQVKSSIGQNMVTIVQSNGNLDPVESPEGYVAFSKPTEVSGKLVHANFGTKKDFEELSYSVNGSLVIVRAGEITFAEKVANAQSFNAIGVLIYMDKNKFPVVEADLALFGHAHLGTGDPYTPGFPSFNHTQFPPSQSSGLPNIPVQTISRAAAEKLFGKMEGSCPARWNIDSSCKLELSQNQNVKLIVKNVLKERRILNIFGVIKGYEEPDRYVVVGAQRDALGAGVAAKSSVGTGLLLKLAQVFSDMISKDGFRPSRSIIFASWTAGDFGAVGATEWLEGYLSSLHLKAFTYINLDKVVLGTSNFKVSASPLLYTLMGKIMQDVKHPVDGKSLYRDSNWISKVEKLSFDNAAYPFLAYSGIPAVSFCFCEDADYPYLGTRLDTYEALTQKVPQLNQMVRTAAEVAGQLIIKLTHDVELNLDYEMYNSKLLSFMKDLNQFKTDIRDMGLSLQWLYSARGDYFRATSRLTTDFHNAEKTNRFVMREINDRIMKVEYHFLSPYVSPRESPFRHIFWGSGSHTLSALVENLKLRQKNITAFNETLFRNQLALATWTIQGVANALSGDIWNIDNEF
T4 sequence (P02786 whole entry): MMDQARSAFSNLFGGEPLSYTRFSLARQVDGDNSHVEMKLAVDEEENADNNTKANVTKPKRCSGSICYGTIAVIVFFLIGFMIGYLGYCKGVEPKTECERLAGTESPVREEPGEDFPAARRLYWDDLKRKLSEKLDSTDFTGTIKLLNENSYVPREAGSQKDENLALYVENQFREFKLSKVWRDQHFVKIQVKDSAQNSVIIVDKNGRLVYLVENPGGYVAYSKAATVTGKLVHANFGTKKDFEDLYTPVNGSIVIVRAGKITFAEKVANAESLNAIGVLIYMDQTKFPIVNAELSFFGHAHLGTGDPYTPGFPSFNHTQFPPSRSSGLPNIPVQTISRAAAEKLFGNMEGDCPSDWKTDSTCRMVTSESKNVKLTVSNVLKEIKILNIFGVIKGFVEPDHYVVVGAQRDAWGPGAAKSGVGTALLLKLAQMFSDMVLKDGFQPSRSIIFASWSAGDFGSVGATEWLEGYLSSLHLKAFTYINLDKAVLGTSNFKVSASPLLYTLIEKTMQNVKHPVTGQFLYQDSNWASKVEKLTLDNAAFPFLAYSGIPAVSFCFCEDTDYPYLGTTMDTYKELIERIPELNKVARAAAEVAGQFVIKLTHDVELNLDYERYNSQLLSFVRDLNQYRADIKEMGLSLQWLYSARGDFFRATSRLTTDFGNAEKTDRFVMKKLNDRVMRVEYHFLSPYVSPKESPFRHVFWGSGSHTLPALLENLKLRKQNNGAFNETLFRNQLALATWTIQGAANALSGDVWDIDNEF

B1: AAV-BI98 (other)
chain: MAADGYLPDWLEDNLSEGIREWWALKPGAPQPKANQQHQDNARGLVLPGYKYLGPGNGLDKGEPVNAADAAALEHDKAYDQQLKAGDNPYLKYNHADAEFQERLKEDTSFGGNLGRAVFQAKKRLLEPLGLVEEAAKTAPGKKRPVEQSPQEPDSSAGIGKSGAQPAKKRLNFGQTGDTESVPDPQPIGEPPAAPSGVGSLTMASGGGAPVADNNEGADGVGSSSGNWHCDSQWLGDRVITTSTRTWALPTYNNHLYKQISNSTSGGSSNDNAYFGYSTPWGYFDFNRFHCHFSPRDWQRLINNNWGFRPKRLNFKLFNIQVKEVTDNNGVKTIANNLTSTVQVFTDSDYQLPYVLGSAHEGCLPPFPADVFMIPQYGYLTLNDGSQAVGRSSFYCLEYFPSQMLRTGNNFQFSYEFENVPFHSSYAHSQSLDRLMNPLIDQYLYYLSRTINGSGQNQQTLKFSVAGPSNMAVQGRNYIPGPSYRQQRVSTTVTQNNNSEFAWPGASSWALNGRNSLMNPGPAMASHKEGEDRFFPLSGSLIFGKQGTGRDNVDADKVMITNEEEIKTTNPVATESYGQVATNHQSAQYSRLNMNAQAQTGWVQNQGILPGMVWQDRDVYLQGPIWAKIPHTDGNFHPSPLMGGFGMKHPPPQILIKNTPVPADPPTAFNKDKLNSFITQYSTGQVSVEIEWELQKENSKRWNPEIQYTSNYYKSNNVEFAVNTEGVYSEPRPIGTRYLTRNL
notes: Engineered AAV capsid tested as assembled virus particles; entry is full VP1; also called AAV-B198
With B1, the binding result is “no binding (tested: 3,000 vg/cell)” in the test with macaque TfR1, “no binding (tested: 3,000 vg/cell)” with mouse TfR1, “no binding (tested: 3,000 vg/cell)” with marmoset TfR1 and “binds” in test [1].

B2: AAV-BI99 (other)
chain: MAADGYLPDWLEDNLSEGIREWWALKPGAPQPKANQQHQDNARGLVLPGYKYLGPGNGLDKGEPVNAADAAALEHDKAYDQQLKAGDNPYLKYNHADAEFQERLKEDTSFGGNLGRAVFQAKKRLLEPLGLVEEAAKTAPGKKRPVEQSPQEPDSSAGIGKSGAQPAKKRLNFGQTGDTESVPDPQPIGEPPAAPSGVGSLTMASGGGAPVADNNEGADGVGSSSGNWHCDSQWLGDRVITTSTRTWALPTYNNHLYKQISNSTSGGSSNDNAYFGYSTPWGYFDFNRFHCHFSPRDWQRLINNNWGFRPKRLNFKLFNIQVKEVTDNNGVKTIANNLTSTVQVFTDSDYQLPYVLGSAHEGCLPPFPADVFMIPQYGYLTLNDGSQAVGRSSFYCLEYFPSQMLRTGNNFQFSYEFENVPFHSSYAHSQSLDRLMNPLIDQYLYYLSRTINGSGQNQQTLKFSVAGPSNMAVQGRNYIPGPSYRQQRVSTTVTQNNNSEFAWPGASSWALNGRNSLMNPGPAMASHKEGEDRFFPLSGSLIFGKQGTGRDNVDADKVMITNEEEIKTTNPVATESYGQVATNHQSAQYSRLNKDAQAQTGWVQNQGILPGMVWQDRDVYLQGPIWAKIPHTDGNFHPSPLMGGFGMKHPPPQILIKNTPVPADPPTAFNKDKLNSFITQYSTGQVSVEIEWELQKENSKRWNPEIQYTSNYYKSNNVEFAVNTEGVYSEPRPIGTRYLTRNL
notes: Engineered AAV capsid tested as assembled virus particles; entry is full VP1
B2: the binding result with macaque TfR1 was “no binding (tested: 3,000 vg/cell)”; with mouse TfR1 it was “no binding (tested: 3,000 vg/cell)”; with marmoset TfR1, “no binding (tested: 3,000 vg/cell)”; in test [1], “binds”.

B3: AAV-BI101 (other)
chain: MAADGYLPDWLEDNLSEGIREWWALKPGAPQPKANQQHQDNARGLVLPGYKYLGPGNGLDKGEPVNAADAAALEHDKAYDQQLKAGDNPYLKYNHADAEFQERLKEDTSFGGNLGRAVFQAKKRLLEPLGLVEEAAKTAPGKKRPVEQSPQEPDSSAGIGKSGAQPAKKRLNFGQTGDTESVPDPQPIGEPPAAPSGVGSLTMASGGGAPVADNNEGADGVGSSSGNWHCDSQWLGDRVITTSTRTWALPTYNNHLYKQISNSTSGGSSNDNAYFGYSTPWGYFDFNRFHCHFSPRDWQRLINNNWGFRPKRLNFKLFNIQVKEVTDNNGVKTIANNLTSTVQVFTDSDYQLPYVLGSAHEGCLPPFPADVFMIPQYGYLTLNDGSQAVGRSSFYCLEYFPSQMLRTGNNFQFSYEFENVPFHSSYAHSQSLDRLMNPLIDQYLYYLSRTINGSGQNQQTLKFSVAGPSNMAVQGRNYIPGPSYRQQRVSTTVTQNNNSEFAWPGASSWALNGRNSLMNPGPAMASHKEGEDRFFPLSGSLIFGKQGTGRDNVDADKVMITNEEEIKTTNPVATESYGQVATNHQSAQYHRLSNNAQAQTGWVQNQGILPGMVWQDRDVYLQGPIWAKIPHTDGNFHPSPLMGGFGMKHPPPQILIKNTPVPADPPTAFNKDKLNSFITQYSTGQVSVEIEWELQKENSKRWNPEIQYTSNYYKSNNVEFAVNTEGVYSEPRPIGTRYLTRNL
notes: as for B2
Turning to B3, the binding result is given as “no binding (tested: 3,000 vg/cell)” with macaque TfR1, “no binding (tested: 3,000 vg/cell)” in the test with mouse TfR1, “no binding (tested: 3,000 vg/cell)” with marmoset TfR1 and “binds” in test [1].

B4: AAV-BI19 (other)
chain: MAADGYLPDWLEDNLSEGIREWWALKPGAPQPKANQQHQDNARGLVLPGYKYLGPGNGLDKGEPVNAADAAALEHDKAYDQQLKAGDNPYLKYNHADAEFQERLKEDTSFGGNLGRAVFQAKKRLLEPLGLVEEAAKTAPGKKRPVEQSPQEPDSSAGIGKSGAQPAKKRLNFGQTGDTESVPDPQPIGEPPAAPSGVGSLTMASGGGAPVADNNEGADGVGSSSGNWHCDSQWLGDRVITTSTRTWALPTYNNHLYKQISNSTSGGSSNDNAYFGYSTPWGYFDFNRFHCHFSPRDWQRLINNNWGFRPKRLNFKLFNIQVKEVTDNNGVKTIANNLTSTVQVFTDSDYQLPYVLGSAHEGCLPPFPADVFMIPQYGYLTLNDGSQAVGRSSFYCLEYFPSQMLRTGNNFQFSYEFENVPFHSSYAHSQSLDRLMNPLIDQYLYYLSRTINGSGQNQQTLKFSVAGPSNMAVQGRNYIPGPSYRQQRVSTTVTQNNNSEFAWPGASSWALNGRNSLMNPGPAMASHKEGEDRFFPLSGSLIFGKQGTGRDNVDADKVMITNEEEIKTTNPVATESYGQVATNHQSAQYSRIGPNAQAQTGWVQNQGILPGMVWQDRDVYLQGPIWAKIPHTDGNFHPSPLMGGFGMKHPPPQILIKNTPVPADPPTAFNKDKLNSFITQYSTGQVSVEIEWELQKENSKRWNPEIQYTSNYYKSNNVEFAVNTEGVYSEPRPIGTRYLTRNL
notes: Engineered AAV capsid, tested as assembled genome-packaging virus particles; VP2 and VP3 come from the same cap gene
Consider B4, for which the binding result in test [2] is reported as “binds”; with macaque TfR1, “no binding (tested: 3,000 vg/cell)”; in the test with mouse TfR1, “no binding (tested: 3,000 vg/cell)”; with marmoset TfR1, “no binding (tested: 3,000 vg/cell)”.

B5: AAV-BI102 (other)
chain: MAADGYLPDWLEDNLSEGIREWWALKPGAPQPKANQQHQDNARGLVLPGYKYLGPGNGLDKGEPVNAADAAALEHDKAYDQQLKAGDNPYLKYNHADAEFQERLKEDTSFGGNLGRAVFQAKKRLLEPLGLVEEAAKTAPGKKRPVEQSPQEPDSSAGIGKSGAQPAKKRLNFGQTGDTESVPDPQPIGEPPAAPSGVGSLTMASGGGAPVADNNEGADGVGSSSGNWHCDSQWLGDRVITTSTRTWALPTYNNHLYKQISNSTSGGSSNDNAYFGYSTPWGYFDFNRFHCHFSPRDWQRLINNNWGFRPKRLNFKLFNIQVKEVTDNNGVKTIANNLTSTVQVFTDSDYQLPYVLGSAHEGCLPPFPADVFMIPQYGYLTLNDGSQAVGRSSFYCLEYFPSQMLRTGNNFQFSYEFENVPFHSSYAHSQSLDRLMNPLIDQYLYYLSRTINGSGQNQQTLKFSVAGPSNMAVQGRNYIPGPSYRQQRVSTTVTQNNNSEFAWPGASSWALNGRNSLMNPGPAMASHKEGEDRFFPLSGSLIFGKQGTGRDNVDADKVMITNEEEIKTTNPVATESYGQVATNHQSAQLHALSHNAQAQTGWVQNQGILPGMVWQDRDVYLQGPIWAKIPHTDGNFHPSPLMGGFGMKHPPPQILIKNTPVPADPPTAFNKDKLNSFITQYSTGQVSVEIEWELQKENSKRWNPEIQYTSNYYKSNNVEFAVNTEGVYSEPRPIGTRYLTRNL
notes: as for B2
With B5, the binding result in test [1] is “binds”.

B6: AAV-BI100 (other)
chain: MAADGYLPDWLEDNLSEGIREWWALKPGAPQPKANQQHQDNARGLVLPGYKYLGPGNGLDKGEPVNAADAAALEHDKAYDQQLKAGDNPYLKYNHADAEFQERLKEDTSFGGNLGRAVFQAKKRLLEPLGLVEEAAKTAPGKKRPVEQSPQEPDSSAGIGKSGAQPAKKRLNFGQTGDTESVPDPQPIGEPPAAPSGVGSLTMASGGGAPVADNNEGADGVGSSSGNWHCDSQWLGDRVITTSTRTWALPTYNNHLYKQISNSTSGGSSNDNAYFGYSTPWGYFDFNRFHCHFSPRDWQRLINNNWGFRPKRLNFKLFNIQVKEVTDNNGVKTIANNLTSTVQVFTDSDYQLPYVLGSAHEGCLPPFPADVFMIPQYGYLTLNDGSQAVGRSSFYCLEYFPSQMLRTGNNFQFSYEFENVPFHSSYAHSQSLDRLMNPLIDQYLYYLSRTINGSGQNQQTLKFSVAGPSNMAVQGRNYIPGPSYRQQRVSTTVTQNNNSEFAWPGASSWALNGRNSLMNPGPAMASHKEGEDRFFPLSGSLIFGKQGTGRDNVDADKVMITNEEEIKTTNPVATESYGQVATNHQSAQVHRLQDKAQAQTGWVQNQGILPGMVWQDRDVYLQGPIWAKIPHTDGNFHPSPLMGGFGMKHPPPQILIKNTPVPADPPTAFNKDKLNSFITQYSTGQVSVEIEWELQKENSKRWNPEIQYTSNYYKSNNVEFAVNTEGVYSEPRPIGTRYLTRNL
notes: as for B2
Consider B6, for which the binding result in test [1] is given as “binds”.
